This is an account of results in the nanobody polyreactivity screen of Harvey et al. (2022).

This data set can be described thus: yeast display, Sf9 membrane polyspecificity reagent, FACS + sequencing; frameworks hold sequencing errors. The gist of the method:
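Polyreactivity labels are assigned by the sorting gate from which each nanobody was recovered. The gates were low and high (top ~1%), set on anti-HA fluorescence for expression and streptavidin fluorescence for reagent binding. Before sorting, galactose-induced (36–48 hours) yeast display cells were stained for 1 hour at 4 °C with 10% biotinylated, detergent-solubilized Sf9 membrane reagent.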
With “QVQLVESGGGLVQAGGSLRLSCAASGFIFDKNAMGWYRQAPGKERELVAAITSSGGSTYADSVKGRFTISRDNAKNTVYLQMNSLKPEDTAVYYCAARWYRPWYVTDSGDDYWGQGTQVTVSS”, the “polyreactivity (PSR sort gate)” value was “low polyreactivity”.
As for “QVQLVESGGGLVQAGGSLRLSCAASGFIFDLYAMGWYRQAPGKERELVAAISPSGGSTYYADSVKGRFTISRDNAKNTVYLQMNSLKPEDTAVYYCNTGIRWAISKEYDYWGQGTQVTVSS”, the “polyreactivity (PSR sort gate)” value is listed as “high polyreactivity”.
As to “QVQLVESGGGLVQAGGSLRLSCAASGFIFDPYAMGWYRQAPGKERELVARITWSGGRTYYADSVKGRFTISRDNAKNTVYLQMNSLKPEDTAVYYCNADVYGFDYWGQGTQVTVSS”, the “polyreactivity (PSR sort gate)” value is on record as “high polyreactivity”.
To “QVQLVESGGGLVQAGGSLRLSCAASGFIFDQNAMGWYRQAPGKERELVAAISKRGGSTYYADSVKGRFTISRDTAKNTVYLQMNSLKPEDTAVYYCATRSWGPYYYGYNHWGQGTQVTVSS” belongs “high polyreactivity”.
In the case of “QVQLVESGGGLVQAGGSLRLSCAASGFIFDQYAMGWYRQAPGKERELVAAISSGGRTYYADSVKGRFTISRDNAKNTVYLQMNSLKPEDTAVYYCAAKSWTDSRVTGYWGQGTQVTVSS”, the “polyreactivity (PSR sort gate)” value is reported as “high polyreactivity”.
With “QVQLVESGGGLVQAGGSLRLSCAASGFIFDQYDMGWYRQAPGKERELVAAISDSGGSTYYADSVKGRFTISRDNAKNTVYLQMNSLKPEDTAVYYCAAGSYLAFGGLWFYYWGQGTQVTVSS”, the “polyreactivity (PSR sort gate)” value was “high polyreactivity”.
Consider “QVQLVESGGGLVQAGGSLRLSCAASGFIFDSNPIGWYRQAPWKEREVVAAISSSGGSTYYADSVKGRFTISRDNAKNTVYLQMKSLKPEDTAVYYCGAESQRFISSSEVYWGQGTQVTVSS”, for which the “polyreactivity (PSR sort gate)” value is “low polyreactivity”.
To “QVQLVESGGGLVQAGGSLRLSCAASGFIFDSYAMGWYRQAPGKERELVAAISWSGGRTYYADSVKGRFTISRDNAKNTVYLQMNSLKPEDTAVYYCNVRTKLSTSYDYWGQGTQVTVSS” belongs “high polyreactivity”.
As to “QVQLVESGGGLVQAGGSLRLSCAASGFIFDTYAMGWYRQAPGKERELVAAISRSGVRTYYADSVKGRFTISRDNAKNTVYLQMNSLTPEDTAVYYCNAALNRYHFGRAVPGDYWGQGTQVTVSS”, the “polyreactivity (PSR sort gate)” value is reported as “high polyreactivity”.
To “QVQLVESGGGLVQAGGSLRLSCAASGFIFDTYAMGWYRQAPGKERELVARINYSGGSTRYADSVKGRFTISRDNAKNTVYLQMNSLKPEDTAVYYCAAREFSYGFYYWGQGTQVTVSS” belongs “high polyreactivity”; to “QVQLVESGGGLVQAGGSLRLSCAASGFIFDVNAMGWYRQAPGKERELVATISKRGGTTYYADSVKGRFTISRDNAKNTVYLQMNSLKPEDTAVYYCAARHQTLRSYRYDYWGQGTQVTVSS”, “low polyreactivity”.
On to “QVQLVESGGGLVQAGGSLRLSCAASGFIFDVNAMGWYRQAPGKETELVAAISKSGRRTYYADSVKGRFTISRDNAKNTVYLQMNSLKPEDTAVYYCAASLRASPSFGYWGQGTQVTVSS”, for which the “polyreactivity (PSR sort gate)” value is reported as “high polyreactivity”.
For the sequence “QVQLVESGGGLVQAGGSLRLSCAASGFIFDVYAMGWYRQAPGKERELVAAISRSGGSTHYADSVKGRFTISRDNAKNTVYLQMNSLKPEDTAVYYCATGIRVGYAKYDYWGQGTQVTVSS”, the “polyreactivity (PSR sort gate)” value was “high polyreactivity”.
Take “QVQLVESGGGLVQAGGSLRLSCAASGFIFDVYAMGWYRQAPGKERELVAAITSGDGTNYADSVKGRFTISRDNAKNTVYLQMNSLKPEDTAVYYCAADDGVTYRGIIFSYWGQGSQVTVSS”: the “polyreactivity (PSR sort gate)” value is “low polyreactivity”.
To “QVQLVESGGGLVQAGGSLRLSCAASGFIFDWNTMGWYRQAPGKERELVAAITESSGSTYYADSVKGRFTISRDNAKNTVYLQMNSLKPEDTAVYYCAADFSYVYYLYDYWGQGTQVTVSS” belongs “low polyreactivity”; to “QVQLVESGGGLVQAGGSLRLSCAASGFIFDWYAMGWYRQAPGKERELVAAITRSGGNTYYADSVKGRFTISRDNAKNTVYLQMNSLKPEDTAVYYCNAVAAVYAYGHDYWGQGTQVTVSS”, “high polyreactivity”.
